Legend:
NPAS1;ARNT = NPAS1;ARNT (mouse;mouse?, UniProt A2RSH6;P53762 43-423;82-464, |); experiment: fluorescence anisotropy; FP: 2 nM DNA, 20 mM Tris pH 8.0, 50 mM NaCl, 10 mM DTT, 30 min, temperature not stated (DNA annealed in 10 mM Tris pH 7.5, 1 mM EDTA, 2 mM MgCl2); settings: protein: recombinant;recombinant; tags: vector pSJ2; copies: 1;1; blunt
NPAS3;ARNT = NPAS3;ARNT (mouse;mouse?, UniProt Q9QZQ0;P53762 56-455;82-464, |); experiment: as above; settings: protein: recombinant;recombinant; tags: vector pSJ2; copies: 1;1; blunt
Sequence of NPAS3;ARNT (Q9QZQ0 56-455, chain 1 of 2): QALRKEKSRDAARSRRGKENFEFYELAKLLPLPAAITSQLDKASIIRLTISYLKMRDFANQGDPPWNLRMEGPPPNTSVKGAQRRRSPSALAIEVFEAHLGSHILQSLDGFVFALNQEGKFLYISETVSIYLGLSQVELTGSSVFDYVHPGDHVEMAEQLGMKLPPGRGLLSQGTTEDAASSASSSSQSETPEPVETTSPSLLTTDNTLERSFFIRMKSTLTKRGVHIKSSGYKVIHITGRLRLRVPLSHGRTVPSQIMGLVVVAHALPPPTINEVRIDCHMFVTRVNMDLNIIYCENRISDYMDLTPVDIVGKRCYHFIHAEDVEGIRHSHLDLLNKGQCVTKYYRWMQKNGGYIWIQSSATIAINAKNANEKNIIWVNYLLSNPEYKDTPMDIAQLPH
Sequence of NPAS3;ARNT (P53762 82-464, chain 2 of 2): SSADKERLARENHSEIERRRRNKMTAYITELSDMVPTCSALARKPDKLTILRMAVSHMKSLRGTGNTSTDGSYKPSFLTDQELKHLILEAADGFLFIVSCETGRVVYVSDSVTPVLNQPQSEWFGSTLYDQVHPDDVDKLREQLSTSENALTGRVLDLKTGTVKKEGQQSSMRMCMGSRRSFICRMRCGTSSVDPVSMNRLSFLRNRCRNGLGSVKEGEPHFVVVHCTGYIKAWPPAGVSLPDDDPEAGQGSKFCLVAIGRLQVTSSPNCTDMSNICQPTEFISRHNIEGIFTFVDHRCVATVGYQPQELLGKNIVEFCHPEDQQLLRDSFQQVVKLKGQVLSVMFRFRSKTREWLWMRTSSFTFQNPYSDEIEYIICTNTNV

Sequence of NPAS1;ARNT (chain, as listed by the source |, chain 1 of 2): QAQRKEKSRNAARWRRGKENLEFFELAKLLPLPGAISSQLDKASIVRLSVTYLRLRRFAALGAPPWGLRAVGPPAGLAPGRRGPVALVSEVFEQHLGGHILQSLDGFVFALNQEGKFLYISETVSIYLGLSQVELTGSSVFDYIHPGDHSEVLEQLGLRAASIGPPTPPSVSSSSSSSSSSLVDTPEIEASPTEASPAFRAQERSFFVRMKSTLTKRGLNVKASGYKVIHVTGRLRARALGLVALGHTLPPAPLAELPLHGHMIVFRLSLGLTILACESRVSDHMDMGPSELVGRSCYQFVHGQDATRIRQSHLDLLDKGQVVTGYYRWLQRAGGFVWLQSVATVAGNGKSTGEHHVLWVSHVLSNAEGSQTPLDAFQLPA
Sequence of NPAS1;ARNT (P53762 82-464, chain 2 of 2): as the sequence (P53762 82-464, chain 2 of 2) above

B1: HRE 21-mer (FP probe) (dsDNA)
DNA 1: GGCTGCGTACGTGCGGGTCGT
DNA 2: ACGACCCGCACGTACGCAGCC
- Kd (NPAS1;ARNT): 16.3 ± 1.1 nM
- Kd (NPAS3;ARNT): 17.5 ± 1.1 nM

— publication PMC5111884, “NPAS1-ARNT and NPAS3-ARNT crystal structures implicate the bHLH-PAS family as multi-ligand binding transcription factors”
